Data published in patent US20150344535A1, “NEUROTROPHIN-TYROSINE KINASE RECEPTOR SIGNALING” (THE UNIVERSITY OF QUEENSLAND, priority 2012, published 2015).
Entries after “also recorded” stand apart in the source; their conditions may differ.

Tests used:
p75^FL = target: T1, p75^FL (Rattus norvegicus, UniProt P07174); experiment: NGF-FITC binding by flow cytometry, p75^FL-transfected HEK293 cells
T1 construct: p75^FL—full-length p75^NTR; expressed in transfected cells; host or cells: HEK293
T1 sequence (P07174 30-425): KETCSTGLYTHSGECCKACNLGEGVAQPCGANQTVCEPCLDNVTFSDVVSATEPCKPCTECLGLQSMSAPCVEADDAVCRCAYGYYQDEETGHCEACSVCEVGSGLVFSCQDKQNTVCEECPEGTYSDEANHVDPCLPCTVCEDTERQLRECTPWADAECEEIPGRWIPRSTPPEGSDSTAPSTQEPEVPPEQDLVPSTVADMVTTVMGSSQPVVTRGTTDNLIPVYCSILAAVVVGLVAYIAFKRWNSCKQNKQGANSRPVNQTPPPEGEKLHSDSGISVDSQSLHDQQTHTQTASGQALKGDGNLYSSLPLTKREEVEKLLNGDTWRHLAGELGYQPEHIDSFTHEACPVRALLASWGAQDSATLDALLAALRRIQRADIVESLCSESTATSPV
Method: The NGF was conjugated to FITC by standard methods and detailed flow cytometry acquisition and analysis. For NGF-FITC conjugation 400 μg βNGF in 200 μl pH 8.5 NaHCO3 buffer was mixed with 5-10 μl of 10 mg/ml FITC in 100 μl DMSO for 10 hours at 4° C. on an orbital shaker set to 100 rpm. The excess FITC was removed by dialysis against 3 changes of 5 L of 10 mM Tris, 150 mM NaCl, 0.2% acetic acid, pH 8.2 for 24 hours at 4° C. Conjugate F/P characterization was determined by measuring absorbance at 280 nm and 495 nm according to manufacturer's instructions. Biological activity of the NGF-FITC conjugate was tested by performing PC12 cell neurite outgrowth assays unlabelled NGF, and comparing the levels of neuritogenesis. NGF-FITC conjugates were used within 4 weeks of synthesis.
For the flow cytometry NGF binding assays, fluorescence cell parameters of at least 20,000 events for PC12 cells and 100,000 events for HEK293 cells were acquired by flow cytometry list mode and measurements were performed on a single cell basis (with compensation for double event counting). Dead cells and debris were gated out of the analysis on the basis of forward scatter fluorescence, and mean, median and maximal fluorescence values of the gated cell populations were analysed using FACS Diva Software (Becton-Dickinson Biosciences) and FACS Express Software (Becton-Dickinson Biosciences).
Background fluorescence of HEK293 cells was non-transfected cells (±c29 or scrambled peptide treatment) treated with 26 nM NGF-FITC. For PC12 cells, the control population was cells that had not been treated with NGF-FITC. Analysis of real-time NGF-FITC receptor binding experiments was performed on 550,000-600,000 cells at 4° C. in serum free NB medium and binding kinetics were calculated from raw data files compressed to 50,000 binding events using FlowJo and MatLab Software. Data was plotted with the use of GraphPad Prism.
Only NGF-FITC preparations that promoted equivalent neurite outgrowth of PC12 cells to that of unlabelled NGF were used in binding experiments. To investigate NGF binding, PC12 or transfected HEK293 cells were serum starved for 4 hours, harvested, washed with Dulbecco's Modified Eagle Medium (DMEM), and counted. When used, c29 or scrambled peptide were added to cultures for the third hour of the serum starvation procedure. 1×10^7 cells/ml suspended in 500 μl of serum-free DMEM were incubated with 26 nM NGF-FITC on ice for 60 minutes before analysis. For binding competition assays, following 1 hour in NGF-FITC, cells were washed with ice-cold PBS containing 0.1% normal bovine serum and incubated on ice with unlabeled NGF at concentrations ranging from 100 pM to 10 μM for 30 minutes, then washed twice in PBS before being analysed on a BD Flow Cytometer FACS Scan (Becton-Dickinson).
To determine association rates, cells were harvested as above following serum starvation and peptide treatment, and were resuspended in 3 ml of serum-free Neurobasal (NB) medium containing […] (Invitrogen) and […] nonessential amino acids, prior to analysis on the flow cytometer. Cells were analysed for 30 seconds prior to the addition of 26 nM NGF-FITC, and then for 30 minutes in real time with an analysis rate of 200-300 events/sec.

[1] = Fear extinction / return of fear in mice; assay type: in vivo, mouse; details: female mice, infusion into infralimbic prefrontal cortex, VEH RET vs C29 RET, FIG. 12
Text: Baker-Andresen et al. Learn Mem. 2013 Apr. 15; 20(5):237-40.
Following fear conditioning (Example 17), exposure to the tone without the shock is termed extinction (removal of the memory).
Researchers can time the duration of this response. Repeated exposure to the tone without the shock is termed extinction (removal of the memory).

[2] = 26 nM NGF-FITC 60 minutes, c.f. p75^FL alone

KRWNSCKQNKQGANSRPVNQTPPPEGEKL (c29- Fragment of p75ICD) [29 amino acid peptide of the p75NTR juxtamembrane Chopper domain; delivered to cells linked to PTD4 or disulfide-linked carrier]
% of cell population with FITC above background (p75^FL; [2]): 100.5 ± 14.2% | Maximal fluorescence per cell of the population (p75^FL; [2]): 98.7 ± 4.3% | Mean fluorescence per FITC-positive cell (p75^FL; [2]): 105.2 ± 3.6% | Median population fluorescence (p75^FL; [2]): 103.8 ± 11.2% | half time of NGF-FITC binding (p75^FL; 26 nM NGF-FITC, cells treated with c29): 7.1 min | fluorescence profile of the population (p75^FL; pre-treated with c29, NGF-FITC): did not change | return of fear [1]: prevents the return of fear; also recorded: blocked the return of fear
